# Assay results: patent publication US20250270320A1 (EUTILEX, published 2025)
# Assays:
# [1] = target: T1, human PD-1 expressed on cells (human, UniProt Q15116 25-288); assay: flow cytometry on hPD-1/293 cells, 2nd-hIgG-PE detection; Ctl 2nd-hIgG 0.17, cell only 0.03
# T1 construct: whole, on cells; also called hPD-1; 293 cell line stably expressing human PD-1
# Excerpt: In addition, each purified humanized antibody was bound to 293 cells expressing human PD-1 and analyzed by flow cytometry.
# [2] = target: T2, recombinant human PD-1-His protein (ECD) (human, UniProt Q15116 25-170); assay: SPR; number in the sensorgram panel without name or unit, taken as KD in M because 5.789e-9 stands for 5.8 nM in FIG 9d
# T2 construct: extracellular domain; Used as ELISA coat and SPR partner; also called rhprotein; antigen; not shown: His tag
# T2 sequence (Q15116 25-170): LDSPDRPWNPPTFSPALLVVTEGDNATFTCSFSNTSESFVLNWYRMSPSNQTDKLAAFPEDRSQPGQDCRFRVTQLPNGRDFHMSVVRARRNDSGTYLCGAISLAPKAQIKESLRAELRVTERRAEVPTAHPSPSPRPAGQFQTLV
# [3] = target: T2, recombinant human PD-1-His protein (ECD); assay: SPR, purified antibody, PD-1 antigen
# [4] = target: T1, human PD-1 expressed on cells; assay: flow cytometry on cells overexpressing hPD-1
# [5] = target: T1, human PD-1 expressed on cells; assay: flow cytometry on activated hCD8 T cells from human blood, 2nd-hIgG-PE detection; 2nd-hIgG-PE alone 1.73
# [6] = target: T2, recombinant human PD-1-His protein (ECD); assay: Q-ELISA of purified antibody on recombinant human PD-1-His, drawn table
# Experimental: For ELISA, the recombinant human PD-1-His protein was O/N coated on a 96-well ELISA plate at 4° C., and blocked with 5% non-fat skim milk at RT for 1 hr. […]
# [7] = target: T1, human PD-1 expressed on cells; assay: cell-based or functional assay
# [8] = target: T2, recombinant human PD-1-His protein (ECD); assay: SPR, purified hybridoma antibody, recombinant human PD-1-His (ECD)
# [9] = target: T1, human PD-1 expressed on cells; assay: cell-based or functional assay; remark: listed apart in the source
# [10] = target: T2, recombinant human PD-1-His protein (ECD); assay: SPR; number in the sensorgram panel without name or unit, taken as KD in M because 8.999e-9 stands for 9 nM in FIG 9d
# T1 sequence (Q15116 25-288): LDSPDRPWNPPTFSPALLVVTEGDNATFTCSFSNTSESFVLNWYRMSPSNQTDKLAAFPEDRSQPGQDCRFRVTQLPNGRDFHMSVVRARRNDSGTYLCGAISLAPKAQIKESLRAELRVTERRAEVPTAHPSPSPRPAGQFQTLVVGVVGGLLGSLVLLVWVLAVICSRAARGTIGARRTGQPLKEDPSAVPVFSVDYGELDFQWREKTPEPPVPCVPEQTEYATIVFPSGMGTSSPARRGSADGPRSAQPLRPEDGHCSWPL
binder,measurement,setting,value
"humanized antibody 2B3W (antibody, V domains shown, Humanized antibody made in Expi293 cells) VH: EVQLVESGGGLVQPGGSLRLSCAASGFVFSNYDMSWVRQAPGKGLEWVAYITIGGGTTYYPDTVKGRFTISRDNAKNSLYLQMNSLRAEDTAVYYCARWVYDPLYAMDYWGQGTTVTVSS VL: DIVLTQTPLSLSVTPGQPASISCRASESVDNYGISFMNWFLQKPGQPPQLLIYAASNQGSGVPDRFSGSGSGTDFTLKISRVEAEDVGVYYCQQSKEVPWTFGQGTKVEIK",percent of cells in the positive quadrant,[1],94.7%
same,Kd,[2],428 nM
same,Kd,[3],13.4 nM
same,koff,[3],0.00271 s⁻¹
same,kon,[3],203000 M⁻¹ s⁻¹
same,percent of cells in the positive quadrant,[4],95.6%
same,percent of cells in the positive quadrant,[5],9.77%
same,"OD=405, row 1 of 8 (1/2 serial dilution from 500ng)",[6],3.17
same,"OD=405, row 2 of 8 (1/2 serial dilution from 500ng)",[6],3.15
same,"OD=405, row 3 of 8 (1/2 serial dilution from 500ng)",[6],3.2
same,"OD=405, row 4 of 8 (1/2 serial dilution from 500ng)",[6],3.13
same,"OD=405, row 5 of 8 (1/2 serial dilution from 500ng)",[6],2.92
same,"OD=405, row 6 of 8 (1/2 serial dilution from 500ng)",[6],2.45
same,"OD=405, row 7 of 8 (1/2 serial dilution from 500ng)",[6],1.7
same,"OD=405, row 8 of 8 (1/2 serial dilution from 500ng)",[6],1.09
"T14-01 (antibody, V domains shown) VH: EVQLVESGGGLVQPGGSLRLSCAASGFVFSNYDMSWVRQAPGKGLEWVAYITIGGGTTYYPDTVKGRFTISRDNAKNSLYLQMNSLRAEDTAVYYCARWVYDPLYAMDYWGQGTTVTVSS VL: DIVLTQTPLSLSVTPGQPASISCRASESVTDYGISFMNWFLQKPGQPPQLLIYAASNQGSGVPDRFSGSGSGTDFTLKISRVEAEDVGVYYCQQSKEVPWTFGQGTKVEIK",percent of cells in the positive quadrant,[4],96.8%
same,percent of cells in the positive quadrant,[5],17.4%
"T14-04 (antibody, V domains shown) VH: EVQLVESGGGLVQPGGSLRLSCAASGFVFSNYDMSWVRQAPGKGLEWVAYITIGGGTTYYPDTVKGRFTISRDNAKNSLYLQMNSLRAEDTAVYYCARWRYDPLFAMDYWGQGTTVTVSS VL: DIVLTQTPLSLSVTPGQPASISCRASESVDNYGISFMNWFLQKPGQPPQLLIYAASNQGSGVPDRFSGSGSGTDFTLKISRVEAEDVGVYYCQQSKEVPWTFGQGTKVEIK",percent of cells in the positive quadrant,[4],95%
same,percent of cells in the positive quadrant,[5],17.1%
same,"EC50 (read off the curve); PD-1/PD-L1 Blockade Bioassay, luciferase RAU",[7],~0.8 µg/mL
"T14-02 (antibody, V domains shown) VH: EVQLVESGGGLVQPGGSLRLSCAASGFVFSNYDMSWVRQAPGKGLEWVAYITIGGGTTYYPDTVKGRFTISRDNAKNSLYLQMNSLRAEDTAVYYCARWVYDPLYAMDYWGQGTTVTVSS VL: DIVLTQTPLSLSVTPGQPASISCRASESVDNYGISFMNWFLQKPGQPPQLLIYAASNQGSGVPDRFSGSGSGTDFTLKISRVEAEDVGVYYCQQSEEVPWTFGQGTKVEIK",percent of cells in the positive quadrant,[4],96%
same,percent of cells in the positive quadrant,[5],11.8%
"T14-03 (antibody, V domains shown) VH: EVQLVESGGGLVQPGGSLRLSCAASGFVFSNYDMSWVRQAPGKGLEWVAYITIGGGTTYYPDTVKGRFTISRDNAKNSLYLQMNSLRAEDTAVYYCARWVYDPLYAMDYWGQGTTVTVSS VL: DIVLTQTPLSLSVTPGQPASISCRASESVTDYGISFMNWFLQKPGQPPQLLIYAASNQGSGVPDRFSGSGSGTDFTLKISRVEAEDVGVYYCQQSEEVPWTFGQGTKVEIK",percent of cells in the positive quadrant,[4],90.9%
same,percent of cells in the positive quadrant,[5],9.55%
"T15-02 (antibody, V domains shown) VH: EVQLVESGGGLVKPGGSLRLSCAASGFTFSSFGMSWVRQAPGKGLELVATIYSNGDYTYYPDSVKGRFTVSRDNAKNSLYLQMNSLRAEDTAVYYCARYYGNYGGYFDYWGQGTLVTVSS VL: AIQMTQSPSSLSASVGDRVTITCKASQSVSNDVAWYQQKPGKAPKLLIYYASNRYTGVPSRFSGSGSGTDFTLTISSLQPEDFATYYCQQDFWYPPTFGGGTKVEIK",percent of cells in the positive quadrant,[4],96.9%
same,percent of cells in the positive quadrant,[5],19.3%
"T15-04 (antibody, V domains shown) VH: EVQLVESGGGLVKPGGSLRLSCAASGFTFSSFGMSWVRQAPGKGLELVATIYSNGDYTYYPDSVKGRFTVSRDNAKNSLYLQMNSLRAEDTAVYYCARYYGNYGGYFDYWGQGTLVTVSS VL: AIQMTQSPSSLSASVGDRVTITCKASQSVSNDVAWYQQKPGKAPKLLIYYAYMRYTGVPSRFSGSGSGTDFTLTISSLQPEDFATYYCQQDYSSPPTFGGGTKVEIK",percent of cells in the positive quadrant,[4],96.6%
same,percent of cells in the positive quadrant,[5],12.4%
"T15-03 (antibody, V domains shown) VH: EVQLVESGGGLVKPGGSLRLSCAASGFTFSSFGMSWVRQAPGKGLELVATIYSNGDYTYYPDSVKGRFTVSRDNAKNSLYLQMNSLRAEDTAVYYCARYYGNYGGYFDYWGQGTLVTVSS VL: AIQMTQSPSSLSASVGDRVTITCKASQSVSNDVAWYQQKPGKAPKLLIYYAYMRYTGVPSRFSGSGSGTDFTLTISSLQPEDFATYYCHQDYSSPPTFGGGTKVEIK",percent of cells in the positive quadrant,[4],96.7%
same,percent of cells in the positive quadrant,[5],10.7%
same,"EC50 (read off the curve); PD-1/PD-L1 Blockade Bioassay, luciferase RAU",[7],~1 µg/mL
"T15-05 (antibody, V domains shown) VH: EVQLVESGGGLVKPGGSLRLSCAASGFTFSSFGMSWVRQAPGKGLELVATIYHSRDYTYYPDSVKGRFTVSRDNAKNSLYLQMNSLRAEDTAVYYCARYYGNYGGYFDYWGQGTLVTVSS VL: AIQMTQSPSSLSASVGDRVTITCKASQSVSNDVAWYQQKPGKAPKLLIYYASNRYTGVPSRFSGSGSGTDFTLTISSLQPEDFATYYCQQDYSSPPTFGGGTKVEIK",percent of cells in the positive quadrant,[4],97.5%
same,percent of cells in the positive quadrant,[5],16.1%
"2-7C5 hybridoma antibody (antibody, V domains shown, Mouse hybridoma antibody) VH: EVQLVESGGGLVQPVGSLKLSCAASGFTFSSFGMSWVRQTPDKRLELVATIYSNGDYTYYPDSVKGRFTVSRDNAKNTLYLQMSSLKSEDTAMYYCARYYGNYGGYFDYWGQGTTLTVSS VL: SIVMTQTPKFLLVSAGDRVTITCKASQSVSNDVAWYQQKPGQSPKLLIYYASNRYTGAPDRFTGSGYGTDFTFTISTVQAEDLAVYFCQQDYSSPPTFGGGTKLEIK",Kd,[8],17.1 nM
same,koff,[8],0.00127 s⁻¹
same,kon,[8],74200 M⁻¹ s⁻¹
same,"IC50 (read off the curve); PD-1/PD-L1 blocking reporter assay, fold induction",[9],~3 µg/mL
"humanized antibody 8D4 (antibody, V domains shown, Humanized antibody) VH: QVQLVQSGAEVKKPGASVKVSCKASGYTFTTYWIHWVRQAPGQGLEWIGYINPTTGYTEYNQKFKDRATLTADKSTSTAYMELSSLRSEDTAVYYCARGVRYYFDYWGKGTTVTVSS VL: DIVMTQSPDSLAVSLGERATINCKSSQSLLDSRTRKNYLAWYQQKPGQPPKLLIYWASTRESGVPDRFSGSGSGTDFTLTISSLQAEDVAVYYCKQSYNLITFGQGTKLEIK",percent of cells in the positive quadrant,[1],96.1%
same,Kd,[10],18.5 nM
same,Kd,[3],29.6 nM
same,koff,[3],0.00176 s⁻¹
same,kon,[3],59400 M⁻¹ s⁻¹
same,percent of cells in the positive quadrant,[4],96.2%
same,"OD=405, row 1 of 8 (1/2 serial dilution from 500ng)",[6],3.35
same,"OD=405, row 2 of 8 (1/2 serial dilution from 500ng)",[6],3.31
same,"OD=405, row 3 of 8 (1/2 serial dilution from 500ng)",[6],3.33
same,"OD=405, row 4 of 8 (1/2 serial dilution from 500ng)",[6],3.26
same,"OD=405, row 5 of 8 (1/2 serial dilution from 500ng)",[6],2.95
same,"OD=405, row 6 of 8 (1/2 serial dilution from 500ng)",[6],2.41
same,"OD=405, row 7 of 8 (1/2 serial dilution from 500ng)",[6],1.61
same,"OD=405, row 8 of 8 (1/2 serial dilution from 500ng)",[6],0.975
"8D4-T16-02 (antibody, V domains shown, Engineered clone of humanized 8D4; also called T1-02) VH: QVQLVQSGAEVKKPGASVKVSCKASGYTFTTYWIHWVRQAPGQGLEWIGYINPTTGYTEYNQKFKDRATLTADKSTSTAYMELSSLRSEDTAVYYCARGVRYYFDYWGKGTTVTVSS VL: DIVMTQSPDSLAVSLGERATINCKSSQSLLDSRTRKNYLAWYQQKPGQPPKLLIYWASTRESGVPDRFSGSGSGTDFTLTISSLQAEDVAVYYCQQQYDPPITFGQGTKLEIK",Kd,[10],1800 nM
same,percent of cells in the positive quadrant,[4],95.5%
"4-8D4 hybridoma antibody (antibody, V domains shown, Mouse hybridoma antibody) VH: QVQLQQSGAELAKPGASVKMSCKASGYTFTTYWIHWVKQRPGQGLEWIGYINPTTGYTEYNQKFKDKATLTADKSSNTAYMQLSSLTSEDSAVYYCARGVRYYFDYWGKGTTLTVSS VL: DIVMSQSPSSLAVSAGEKVTMSCKSSQSLLDSRTRKNYLAWYQQKPGQSPKLLIYWASTRESGVPDRFTGSGSGTDFTLTISSVKAEDLAVYLCKQSYNLITFGAGTKLELK",Kd,[8],15.9 nM
same,koff,[8],0.00106 s⁻¹
same,kon,[8],66700 M⁻¹ s⁻¹
same,"IC50 (read off the curve); PD-1/PD-L1 blocking reporter assay, fold induction",[9],~3 µg/mL
